Test results published in patent publication US20140187616A1.

Molecular target: Drosophila olf186-F-RB (Drosophila) (UniProt Q9U6B8)
Experiment: cell-based or functional assay

UniProt Q9U6B8, sequence (Q9U6B8 whole entry): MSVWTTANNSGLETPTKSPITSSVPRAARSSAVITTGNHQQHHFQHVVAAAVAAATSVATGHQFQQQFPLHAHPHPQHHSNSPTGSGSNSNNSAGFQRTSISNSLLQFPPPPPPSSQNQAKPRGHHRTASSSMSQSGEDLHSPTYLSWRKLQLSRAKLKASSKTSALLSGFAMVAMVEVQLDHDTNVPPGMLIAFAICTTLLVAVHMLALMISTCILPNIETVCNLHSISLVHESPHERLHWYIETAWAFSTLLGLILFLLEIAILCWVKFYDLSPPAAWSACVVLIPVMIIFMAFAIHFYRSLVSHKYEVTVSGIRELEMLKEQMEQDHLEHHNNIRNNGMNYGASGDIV

CRAC current density (whole-cell patch clamp, cotransfected S2 cells): 8 fold
Substance: Drosophila Stim (from UniProt P83094 24-570)
